The target in the assay is human MCSP expressed on tumor cells (Colo-38, WM266-4, MV-3) (human, UniProt Q6UVK1 30-2322). In words: cell-based or functional assay.
Sequence of human MCSP expressed on tumor cells (Colo-38, WM266-4, MV-3) (Q6UVK1 30-2322): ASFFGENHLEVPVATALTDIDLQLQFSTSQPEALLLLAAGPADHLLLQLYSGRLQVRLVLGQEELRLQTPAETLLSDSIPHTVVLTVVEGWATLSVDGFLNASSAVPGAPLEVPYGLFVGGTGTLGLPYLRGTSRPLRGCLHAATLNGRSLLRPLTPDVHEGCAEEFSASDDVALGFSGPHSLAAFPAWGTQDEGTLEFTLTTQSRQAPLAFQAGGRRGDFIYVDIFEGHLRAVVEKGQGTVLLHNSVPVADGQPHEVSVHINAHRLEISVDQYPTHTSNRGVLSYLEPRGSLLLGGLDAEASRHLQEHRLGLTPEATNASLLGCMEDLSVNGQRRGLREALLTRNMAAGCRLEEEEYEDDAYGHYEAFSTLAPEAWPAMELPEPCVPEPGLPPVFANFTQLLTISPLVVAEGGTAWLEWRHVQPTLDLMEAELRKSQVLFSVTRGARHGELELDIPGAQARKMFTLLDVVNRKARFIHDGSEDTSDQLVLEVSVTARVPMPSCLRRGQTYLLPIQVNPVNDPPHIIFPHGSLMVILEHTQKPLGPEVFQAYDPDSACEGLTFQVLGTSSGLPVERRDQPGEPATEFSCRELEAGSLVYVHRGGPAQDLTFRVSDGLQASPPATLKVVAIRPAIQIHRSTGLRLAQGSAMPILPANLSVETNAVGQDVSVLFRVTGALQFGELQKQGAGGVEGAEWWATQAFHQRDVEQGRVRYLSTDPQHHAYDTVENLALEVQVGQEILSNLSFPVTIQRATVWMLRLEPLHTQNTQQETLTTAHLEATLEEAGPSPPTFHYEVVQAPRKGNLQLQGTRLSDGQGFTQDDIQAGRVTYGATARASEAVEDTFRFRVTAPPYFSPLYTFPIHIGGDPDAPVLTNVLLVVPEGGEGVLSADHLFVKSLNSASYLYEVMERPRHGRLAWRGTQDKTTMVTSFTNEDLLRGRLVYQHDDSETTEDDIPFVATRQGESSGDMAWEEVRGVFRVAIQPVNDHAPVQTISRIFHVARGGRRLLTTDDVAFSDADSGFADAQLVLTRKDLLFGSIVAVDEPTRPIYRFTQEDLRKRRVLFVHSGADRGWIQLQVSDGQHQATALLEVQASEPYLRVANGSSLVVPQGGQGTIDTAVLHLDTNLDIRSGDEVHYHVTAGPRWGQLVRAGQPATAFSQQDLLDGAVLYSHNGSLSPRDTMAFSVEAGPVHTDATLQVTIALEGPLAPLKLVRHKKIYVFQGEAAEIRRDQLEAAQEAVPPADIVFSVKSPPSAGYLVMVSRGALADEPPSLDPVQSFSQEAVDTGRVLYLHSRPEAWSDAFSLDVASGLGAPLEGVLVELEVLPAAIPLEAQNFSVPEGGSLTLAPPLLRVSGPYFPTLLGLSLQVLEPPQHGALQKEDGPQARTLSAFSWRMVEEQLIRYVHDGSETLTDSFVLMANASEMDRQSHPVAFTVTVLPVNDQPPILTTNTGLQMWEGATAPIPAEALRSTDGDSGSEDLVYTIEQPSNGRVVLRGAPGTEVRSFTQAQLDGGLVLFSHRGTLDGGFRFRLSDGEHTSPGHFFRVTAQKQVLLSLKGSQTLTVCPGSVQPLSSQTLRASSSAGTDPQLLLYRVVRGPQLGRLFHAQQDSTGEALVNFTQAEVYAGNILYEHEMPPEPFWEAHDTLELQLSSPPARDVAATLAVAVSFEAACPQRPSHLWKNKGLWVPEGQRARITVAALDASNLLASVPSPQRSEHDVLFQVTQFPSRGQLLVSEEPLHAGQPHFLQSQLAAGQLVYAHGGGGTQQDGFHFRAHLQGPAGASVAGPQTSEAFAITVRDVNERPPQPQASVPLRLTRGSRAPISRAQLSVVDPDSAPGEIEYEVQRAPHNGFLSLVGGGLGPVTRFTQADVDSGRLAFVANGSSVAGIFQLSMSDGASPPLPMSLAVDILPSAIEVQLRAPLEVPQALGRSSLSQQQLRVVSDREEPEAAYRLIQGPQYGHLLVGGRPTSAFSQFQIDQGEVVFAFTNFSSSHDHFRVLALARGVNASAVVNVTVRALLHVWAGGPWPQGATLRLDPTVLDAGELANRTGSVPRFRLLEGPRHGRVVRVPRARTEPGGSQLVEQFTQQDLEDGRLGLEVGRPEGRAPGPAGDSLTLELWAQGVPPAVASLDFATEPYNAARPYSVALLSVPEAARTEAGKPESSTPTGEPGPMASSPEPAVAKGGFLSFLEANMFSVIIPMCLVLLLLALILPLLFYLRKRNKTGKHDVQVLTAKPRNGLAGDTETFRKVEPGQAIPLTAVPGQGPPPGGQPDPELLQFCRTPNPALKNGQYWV

B1: “1+1 IgG Crossfab”; VL/VH exchange (LC007/V9) (anti-MCSP/anti-huCD3) (bispecific antibody)
chain 1: DIVLTQSPSSLSASLGDRVTISCSASQGIRNYLNWYQQRPDGTVKLLIYYTSSLHSGVPSRFSGSGSGTDYSLTISNLEPEDIATYYCQQYSKLPWTFGGGTKLEIKRTVAAPSVFIFPPSDEQLKSGTASVVCLLNNFYPREAKVQWKVDNALQSGNSQESVTEQDSKDSTYSLSSTLTLSKADYEKHKVYACEVTHQGLSSPVTKSFNRGEC
chain 2: DIQMTQSPSSLSASVGDRVTITCRASQDIRNYLNWYQQKPGKAPKLLIYYTSRLESGVPSRFSGSGSGTDYTLTISSLQPEDFATYYCQQGNTLPWTFGQGTKVEIKSSASTKGPSVFPLAPSSKSTSGGTAALGCLVKDYFPEPVTVSWNSGALTSGVHTFPAVLQSSGLYSLSSVVTVPSSSLGTQTYICNVNHKPSNTKVDKKVEPKSCGGGGSGGGGSEVQLQESGPGLVKPSQSLSLTCSVTGYSITSGYYWNWIRQFPGNKLEWMGYITYDGSNNYNPSLKNRISITRDTSKNQFFLKLNSVTTEDTATYYCADFDYWGQGTTLTVSSASTKGPSVFPLAPSSKSTSGGTAALGCLVKDYFPEPVTVSWNSGALTSGVHTFPAVLQSSGLYSLSSVVTVPSSSLGTQTYICNVNHKPSNTKVDKKVEPKSCDKTHTCPPCPAPEAAGGPSVFLFPPKPKDTLMISRTPEVTCVVVDVSHEDPEVKFNWYVDGVEVHNAKTKPREEQYNSTYRVVSVLTVLHQDWLNGKEYKCKVSNKALGAPIEKTISKAKGQPREPQVCTLPPSRDELTKNQVSLSCAVKGFYPSDIAVEWESNGQPENNYKTTPPVLDSDGSFFLVSKLTVDKSRWQQGNVFSCSVMHEALHNHYTQKSLSLSPGK
chain 3: EVQLVESGGGLVQPGGSLRLSCAASGYSFTGYTMNWVRQAPGKGLEWVALINPYKGVSTYNQKFKDRFTISVDKSKNTAYLQMNSLRAEDTAVYYCARSGYYGDSDWYFDVWGQGTLVTVSSASVAAPSVFIFPPSDEQLKSGTASVVCLLNNFYPREAKVQWKVDNALQSGNSQESVTEQDSKDSTYSLSSTLTLSKADYEKHKVYACEVTHQGLSSPVTKSFNRGEC
chain 4: not shown
Take B1: the “EC50 of killing (LDH release) of MV-3 cells, human PBMCs, E:T 10:1, 21 h” value is 40.9 pM and the “EC50 of killing (LDH release) of WM266-4 cells, human PBMCs, E:T 10:1, 21 h” value was 28.4 pM.

B2: “2+1 IgG Crossfab”; VL/VH exchange (M4-3 ML2/V9) (anti-MCSP/anti-huCD3) (bispecific antibody)
chain 1: B1 chain 3
chain 2: not shown
chain 3: not shown
chain 4: QVQLQESGPGLVKPSQTLSLTCTVSGGSITSGYYWNWIRQHPGKGLEWIGYITYDGSNNYNPSLKSRVTISRDTSKNQFSLKLSSVTAADTAVYYCADFDYWGQGTLVTVSSASTKGPSVFPLAPSSKSTSGGTAALGCLVKDYFPEPVTVSWNSGALTSGVHTFPAVLQSSGLYSLSSVVTVPSSSLGTQTYICNVNHKPSNTKVDKKVEPKSCDKTHTCPPCPAPEAAGGPSVFLFPPKPKDTLMISRTPEVTCVVVDVSHEDPEVKFNWYVDGVEVHNAKTKPREEQYNSTYRVVSVLTVLHQDWLNGKEYKCKVSNKALGAPIEKTISKAKGQPREPQVCTLPPSRDELTKNQVSLSCAVKGFYPSDIAVEWESNGQPENNYKTTPPVLDSDGSFFLVSKLTVDKSRWQQGNVFSCSVMHEALHNHYTQKSLSLSPGK
B2: the “EC50 of killing (LDH release) of MV-3 cells, human PBMCs, E:T 10:1, 27 h” value was roughly 82.2 pM and the “EC50 of killing (LDH release) of WM266-4 cells, human PBMCs, E:T 10:1, 26 h” value was found to be 16.8 pM.

B3: “1+1 CrossMab”; CL/CH1 exchange (LC007/V9) (anti-MCSP/anti-huCD3) (bispecific antibody)
chain 1: B1 chain 1
chain 2: EVQLQESGPGLVKPSQSLSLTCSVTGYSITSGYYWNWIRQFPGNKLEWMGYITYDGSNNYNPSLKNRISITRDTSKNQFFLKLNSVTTEDTATYYCADFDYWGQGTTLTVSSASTKGPSVFPLAPSSKSTSGGTAALGCLVKDYFPEPVTVSWNSGALTSGVHTFPAVLQSSGLYSLSSVVTVPSSSLGTQTYICNVNHKPSNTKVDKKVEPKSCDKTHTCPPCPAPEAAGGPSVFLFPPKPKDTLMISRTPEVTCVVVDVSHEDPEVKFNWYVDGVEVHNAKTKPREEQYNSTYRVVSVLTVLHQDWLNGKEYKCKVSNKALGAPIEKTISKAKGQPREPQVCTLPPSRDELTKNQVSLSCAVKGFYPSDIAVEWESNGQPENNYKTTPPVLDSDGSFFLVSKLTVDKSRWQQGNVFSCSVMHEALHNHYTQKSLSLSPGK
chain 3: DIQMTQSPSSLSASVGDRVTITCRASQDIRNYLNWYQQKPGKAPKLLIYYTSRLESGVPSRFSGSGSGTDYTLTISSLQPEDFATYYCQQGNTLPWTFGQGTKVEIKSSASTKGPSVFPLAPSSKSTSGGTAALGCLVKDYFPEPVTVSWNSGALTSGVHTFPAVLQSSGLYSLSSVVTVPSSSLGTQTYICNVNHKPSNTKVDKKVEPKSC
chain 4: not shown
Turning to B3, the “EC50 of killing (LDH release) of MV-3 cells, human PBMCs, E:T 10:1, 21 h” value was 88.4 pM and the “EC50 of killing (LDH release) of WM266-4 cells, human PBMCs, E:T 10:1, 21 h” value amounted to 53.9 pM.

B4: “2+1 IgG Crossfab”; CL/CH1 exchange (M4-3 ML2/V9) (anti-MCSP/anti-huCD3) (bispecific antibody)
chain 1: B3 chain 3
chain 2: not shown
chain 3: B2 chain 4
chain 4: not shown
Consider B4, for which the “EC50 of killing (LDH release) of MV-3 cells, human PBMCs, E:T 10:1, 27 h” value is roughly 11.7 pM and the “EC50 of killing (LDH release) of WM266-4 cells, human PBMCs, E:T 10:1, 26 h” value is 12.9 pM.

For the origin of these results see US20250043028A1 (Hoffmann-La Roche, published 2025).
